Test results published in paper PMC5342195, “Structure-based mutational analysis of ICAT residues mediating negative regulation of β-catenin co-transcriptional activity” (PLoS ONE, 2017).

B1: HA-tagged β-catenin-NLS Δ665 (D665X) (domain or fragment, UniProt P35222 1-664, looked up)
chain: MATQADLMELDMAMEPDRKAAVSHWQQQSYLDSGIHSGATTTAPSLSGKGNPEEEDVDTSQVLYEWEQGFSQSFTQEQVADIDGQYAMTRAQRVRAAMFPETLDEGMQIPSTQFDAAHPTNVQRLAEPSQMLKHAVVNLINYQDDAELATRAIPELTKLLNDEDQVVVNKAAVMVHQLSKKEASRHAIMRSPQMVSAIVRTMQNTNDVETARCTAGTLHNLSHHREGLLAIFKSGGIPALVKMLGSPVDSVLFYAITTLHNLLLHQEGAKMAVRLAGGLQKMVALLNKTNVKFLAITTDCLQILAYGNQESKLIILASGGPQALVNIMRTYTYEKLLWTTSRVLKVLSVCSSNKPAIVEAGGMQALGLHLTDPSQRLVQNCLWTLRNLSDAATKQEGMEGLLGTLVQLLGSDDINVVTCAAGILSNLTCNNYKNKMMVCQVGGIEALVRTVLRAGDREDITEPAICALRHLTSRHQEAEMAQNAVRLHYGLPVVVKLLHPPSHWPLIKATVGLIRNLALCPANHAPLREQGAIPRLVQLLVRAHQDTQRRTSMGGTQQQFVEGVRMEEIVEGCTGALHILARDVHNRIVIRGLNTIPLFVQLLYSPIENIQRVAAGVLCELAQDKEAAEAIEAEGATAPLTELLHSRNEGVATYAAAVLFRMSE
notes: β-catenin of the HA-tagged CMV::β-catenin-NLS expression vector, truncated by a premature stop codon at residue 665 (D665X); lacks helix C (residues 667-683) and the C-terminal domain; If the NLS stood at the C-terminus of the parent construct, the stop codon would remove it; also called β-catenin Δ665; source: Lu1205 cells, transfected, in total cell lysate
B2: endogenous β-catenin of Mel501 cells (natural protein, human (endogenous in Mel501), UniProt P35222 1-781, looked up)
chain: MATQADLMELDMAMEPDRKAAVSHWQQQSYLDSGIHSGATTTAPSLSGKGNPEEEDVDTSQVLYEWEQGFSQSFTQEQVADIDGQYAMTRAQRVRAAMFPETLDEGMQIPSTQFDAAHPTNVQRLAEPSQMLKHAVVNLINYQDDAELATRAIPELTKLLNDEDQVVVNKAAVMVHQLSKKEASRHAIMRSPQMVSAIVRTMQNTNDVETARCTAGTLHNLSHHREGLLAIFKSGGIPALVKMLGSPVDSVLFYAITTLHNLLLHQEGAKMAVRLAGGLQKMVALLNKTNVKFLAITTDCLQILAYGNQESKLIILASGGPQALVNIMRTYTYEKLLWTTSRVLKVLSVCSSNKPAIVEAGGMQALGLHLTDPSQRLVQNCLWTLRNLSDAATKQEGMEGLLGTLVQLLGSDDINVVTCAAGILSNLTCNNYKNKMMVCQVGGIEALVRTVLRAGDREDITEPAICALRHLTSRHQEAEMAQNAVRLHYGLPVVVKLLHPPSHWPLIKATVGLIRNLALCPANHAPLREQGAIPRLVQLLVRAHQDTQRRTSMGGTQQQFVEGVRMEEIVEGCTGALHILARDVHNRIVIRGLNTIPLFVQLLYSPIENIQRVAAGVLCELAQDKEAAEAIEAEGATAPLTELLHSRNEGVATYAAAVLFRMSEDKPQDYKKRLSVELTSSLFRTEPMAWNETADLGLDIGAQGEPLGYRQDDPSYRSFHSGGYGQDALGMDPMMEHEMGGHHPGADYPVDGLPDLGHAQDLMDGLPPGDSNQLAWFDTDL
notes: β-catenin, endogenous in the human melanoma cell line Mel501; also called CTNNB1; source: endogenous, Mel501 total cell lysate

Tests used:
[1] = biological target: T1, WT ICAT-GST recombinant protein (human, UniProt Q9NSA3 1-81); assay: pull-down; WT ICAT-GST on glutathione-Sepharose 4B beads incubated 3 h at 4°C with total cell lysate in RIPA (500 μg of total proteins) of Lu1205 cells transfected with HA-tagged β-catenin-NLS WT or mutants; washed five times; anti-HA blot; densitometry with ImageJ; conditions: one partner purified
T1 construct: ICAT, WT human cDNA cloned in the bacterial expression vector pGEX-4T3; also called recombinant WT ICAT-GST protein

[2] = biological target: T2, ICAT D66G + F71A + E75V (GAV), Flag-tagged (human, UniProt Q9NSA3 1-81, D66G | F71A | E75V); assay: co-IP; total cell lysates of Mel501 cells transfected with ICAT-Flag WT or mutants, anti-Flag monoclonal antibody 2 h at 4°C, Protein G agarose, washed with RIPA; blot for endogenous β-catenin; densitometry with ImageJ, control fixed to 1.0; conditions: partners not purified
T2 construct: ICAT, human cDNA of 243 bp in pFLAG-CMV2, triple mutant of the C-terminal domain; also called ICAT-GAV; source: Mel501 cells, transiently transfected, in total cell lysate
T2 sequence (looked up): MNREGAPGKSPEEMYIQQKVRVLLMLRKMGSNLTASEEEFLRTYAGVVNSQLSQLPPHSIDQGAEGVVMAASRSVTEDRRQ

[3] = biological target: T3, ICAT F71A + E75V (AV), Flag-tagged (human, UniProt Q9NSA3 1-81, F71A | E75V); assay: as above; conditions: partners not purified
T3 construct: ICAT, human cDNA of 243 bp in pFLAG-CMV2, double mutant of the C-terminal domain; also called ICAT-AV; source: Mel501 cells, transiently transfected, in total cell lysate

[4] = biological target: T4, ICAT D66G + F71A (GA), Flag-tagged (human, UniProt Q9NSA3 1-81, D66G | F71A); assay: as above; conditions: partners not purified
T4 construct: ICAT, human cDNA of 243 bp in pFLAG-CMV2, double mutant of the C-terminal domain; also called ICAT-GA; source: Mel501 cells, transiently transfected, in total cell lysate

Row | Binder | fold of pulled-down protein against full-length WT β-catenin [1] [fold] | reduction of co-precipitated β-catenin against ICAT WT [2] [%] | reduction of co-precipitated β-catenin against ICAT WT [3] [%] | reduction of co-precipitated β-catenin against ICAT WT [4] [%]
1 | B1 | 1.5 |  |  | 
2 | B2 |  | > 70 | > 70 | > 70
